In PMC6899042, “Perturbation of the titin/MURF1 signaling complex is associated with hypertrophic cardiomyopathy in a fish model and in human patients” (Disease Models & Mechanisms, 2019):

Target: T1, myc-tagged MURF1 (muscle-specific ring finger protein 1), full length (human, UniProt Q969Q1-1 1-353)
T1 construct: MURF1 (muscle-specific ring finger protein 1), human, full-length cDNA from bp137 to bp1198 of GenBank NM_032588, printed as aa1-aa354; Cloned into myc-tagged pCMV-Tag3. bp137-bp1198 is 354 codons, which may count the stop codon; source: COS-7 cells, transfected, in lysate (cell line named only for the A168-170 experiment)
T1 sequence (Q969Q1 whole entry, the tested form may be a part): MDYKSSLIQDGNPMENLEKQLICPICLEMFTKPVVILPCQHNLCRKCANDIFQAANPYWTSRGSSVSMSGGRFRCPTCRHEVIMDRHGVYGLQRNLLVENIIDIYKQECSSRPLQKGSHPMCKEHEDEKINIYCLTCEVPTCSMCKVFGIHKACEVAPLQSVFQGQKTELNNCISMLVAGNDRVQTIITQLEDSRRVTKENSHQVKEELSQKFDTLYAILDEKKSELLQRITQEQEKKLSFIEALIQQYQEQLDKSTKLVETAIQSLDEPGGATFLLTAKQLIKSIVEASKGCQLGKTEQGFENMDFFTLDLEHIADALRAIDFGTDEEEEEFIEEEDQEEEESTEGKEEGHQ
Assay: co-IP; GFP-tagged TTN fragment co-transfected with myc-tagged MURF1 (COS-7 cells named for A168-170); IP with anti-myc antibody (Catch and Release v2.0 Reversible Immunoprecipitation System), Western blot with anti-GFP; densitometry normalised to the input amount of GFP-TTN, WT set to 1.00 AU
Conditions: partners not purified

B1: GFP-tagged D30994N-TTN-A168 (titin Ig domain A168 with the HCM-associated mutation D30994N) (domain or fragment, human, UniProt Q8WZ42-11 30928-31021, looked up)
chain: PHFKEELRNLNVRYQSNATLVCKVTGHPKPIVKWYRQGKEIIADGLKYRIQEFKGGYHQLIIASVTNDDATVYQVRATNQGGSVSGTASLEVEV
notes: numbers count on: the protein encoded by GenBank NM_133378; Cloned into pEGFP-C1; the mutation was found in a family with HCM; also called D30994N mutant TTN-A168
co-precipitated amount relative to WT TTN-A168 (1.00 AU): 3.06 AU

B2: GFP-tagged S30186A-TTN-A160-161 (titin domains A160-161 with the HCM-associated mutation S30186A) (domain or fragment, human, UniProt Q8WZ42-11 30134-30326, looked up)
chain: PDYELDERYQEGIFVRQGGVIRLTIPIKGKPFPICKWTKEGQDISKRAMIATAETHTELVIKEADRGDSGTYDLVLENKCGKKAVYIKVRVIGSPNSPEGPLEYDDIQVRSVRVSWRPPADDGGADILGYILERREVPKAAWYTIDSRVRGTSLVVKGLKENVEYHFRVSAENQFGISKPLKSEEPVTPKTPL
notes: numbers count on: the protein encoded by GenBank NM_133378; Cloned into pEGFP-C1; the mutation was found in a family with HCM
co-precipitated amount relative to WT TTN-A160-161 (1.00 AU): 3.11 AU

B3: GFP-tagged E29783V-TTN-A156 (titin Ig domain A156 with the equivalent of the medaka nsh mutation D23186V) (domain or fragment, human, UniProt Q8WZ42-11 29735-29829, looked up)
chain: LPTIDLSTMPQKTIHVPAGRPVELVIPIAGRPPPAASWFFAGSKLRESVRVTVETHTKVAKLTIRETTIRDTGEYTLELKNVTGTTSETIKVIIL
notes: numbers count on: the protein encoded by GenBank NM_133378; Cloned into pEGFP-C1; mutation made by primer-mediated mutagenesis; also called mutant-TTN-A156; nsh Ig domain
co-precipitated amount relative to WT TTN-A156 (1.00 AU): 9.23 AU

B4: GFP-tagged WT-TTN-A169 (titin Ig domain A169) (domain or fragment, human, UniProt Q8WZ42-11 31022-31119, looked up)
chain: PAKIHLPKTLEGMGAVHALRGEVVSIKIPFSGKPDPVITWQKGQDLIDNNGHYQVIVTRSFTSLVFPNGVERKDAGFYVVCAKNRFGIDQKTVELDVA
notes: numbers count on: the protein encoded by GenBank NM_133378; Cloned into pEGFP-C1; also called A169 domain
co-precipitated amount relative to WT TTN-A168 (1.00 AU): 6.69 AU

B5: GFP-tagged D30994N-TTN-A168-170 (titin domains A168-A170 with the HCM-associated mutation D30994N) (domain or fragment, human, UniProt Q8WZ42-11 30928-31228, looked up)
chain: PHFKEELRNLNVRYQSNATLVCKVTGHPKPIVKWYRQGKEIIADGLKYRIQEFKGGYHQLIIASVTNDDATVYQVRATNQGGSVSGTASLEVEVPAKIHLPKTLEGMGAVHALRGEVVSIKIPFSGKPDPVITWQKGQDLIDNNGHYQVIVTRSFTSLVFPNGVERKDAGFYVVCAKNRFGIDQKTVELDVADVPDPPRGVKVSDVSRDSVNLTWTEPASDGGSKITNYIVEKCATTAERWLRVGQARETRYTVINLFGKTSYQFRVIAENKFGLSKPSEPSEPTITKEDKTRAMNYDEEV
notes: numbers count on: the protein encoded by GenBank NM_133378; Cloned into pEGFP-C1; the mutation was found in a family with HCM; also called D30994N mutant TTN-A168-170; source: COS-7 cells, transfected, in lysate
co-precipitated amount relative to WT TTN-A168-170 (1.00 AU): 1.58 AU
